The target in assay [1] is T1, human plasma kallikrein (human, UniProt P03952 20-390; P03952 391-638).
T1 construct: two disulfide linked chains; also called pKal; human pKal
Kind of assay: apparent Ki (Ki,app), human pKal.
T1 sequence (P03952 20-390, chain 1 of 2): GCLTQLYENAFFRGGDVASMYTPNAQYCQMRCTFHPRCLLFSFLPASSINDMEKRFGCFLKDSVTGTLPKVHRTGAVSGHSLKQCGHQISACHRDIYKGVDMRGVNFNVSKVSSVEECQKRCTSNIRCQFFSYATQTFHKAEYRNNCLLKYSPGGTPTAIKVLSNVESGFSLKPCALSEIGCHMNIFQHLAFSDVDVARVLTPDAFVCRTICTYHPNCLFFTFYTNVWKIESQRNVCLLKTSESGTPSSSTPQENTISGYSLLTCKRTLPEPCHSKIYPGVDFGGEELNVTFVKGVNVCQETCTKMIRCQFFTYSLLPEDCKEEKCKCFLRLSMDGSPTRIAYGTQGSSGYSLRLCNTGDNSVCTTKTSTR
T1 sequence (P03952 391-638, chain 2 of 2): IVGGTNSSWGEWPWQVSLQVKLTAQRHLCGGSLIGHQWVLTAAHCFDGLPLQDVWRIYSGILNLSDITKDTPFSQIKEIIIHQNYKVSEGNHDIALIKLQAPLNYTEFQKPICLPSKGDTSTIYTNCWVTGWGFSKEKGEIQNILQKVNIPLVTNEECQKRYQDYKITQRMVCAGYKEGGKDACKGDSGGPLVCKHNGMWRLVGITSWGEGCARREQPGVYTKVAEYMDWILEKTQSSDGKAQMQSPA

The target of assay [2] is T2, human plasma kallikrein (human, UniProt P03952 20-390; P03952 391-638).
T2 construct: also called pKal; human pKal
Kind of assay: apparent Ki (Ki,app), inhibition of human pKal activity.
T2 sequence (P03952 20-390, chain 1 of 2): as the sequence (P03952 20-390, chain 1 of 2) above
T2 sequence (P03952 391-638, chain 2 of 2): as the sequence (P03952 391-638, chain 2 of 2) above

The target in assay [3] is T2, human plasma kallikrein. Kind of assay: ELISA; signal on biotinylated plasma kallikrein divided by signal on streptavidin background. From the text: Abbreviations used: “T/B” is the ELISA signal obtained using of the “target” (biotinylated plasma kallikrein) divided by the ELISA signal of the “background” (streptavidin); both of which were coated on microtiter plates. “nd” is not determined. The symbol “q” refers to the amber suppressible stop codon (TAG), which is translated as glutamine (Q) in strains of E. coli such as the TG1 cells that were used to express the Fab fragments.
(An ELISA detects its analyte on a solid surface through an enzyme-linked reagent.)

A further assay addresses T3, mouse plasma kallikrein (mouse, UniProt P26262 20-638).
T3 construct: mature; Source of the mouse enzyme used for Ki,app is not described; also called mouse pKal
Kind of assay: apparent Ki (Ki,app), mouse pKal.

In assay [4] the target is T1, human plasma kallikrein. Kind of assay: cell-based or functional assay.

Substitutions are numbered along the chain they refer to.

Data on eleven molecules can be found in patent publication US20100183625A1 (published 2010).

T3 sequence (P26262 20-638 limits assumed): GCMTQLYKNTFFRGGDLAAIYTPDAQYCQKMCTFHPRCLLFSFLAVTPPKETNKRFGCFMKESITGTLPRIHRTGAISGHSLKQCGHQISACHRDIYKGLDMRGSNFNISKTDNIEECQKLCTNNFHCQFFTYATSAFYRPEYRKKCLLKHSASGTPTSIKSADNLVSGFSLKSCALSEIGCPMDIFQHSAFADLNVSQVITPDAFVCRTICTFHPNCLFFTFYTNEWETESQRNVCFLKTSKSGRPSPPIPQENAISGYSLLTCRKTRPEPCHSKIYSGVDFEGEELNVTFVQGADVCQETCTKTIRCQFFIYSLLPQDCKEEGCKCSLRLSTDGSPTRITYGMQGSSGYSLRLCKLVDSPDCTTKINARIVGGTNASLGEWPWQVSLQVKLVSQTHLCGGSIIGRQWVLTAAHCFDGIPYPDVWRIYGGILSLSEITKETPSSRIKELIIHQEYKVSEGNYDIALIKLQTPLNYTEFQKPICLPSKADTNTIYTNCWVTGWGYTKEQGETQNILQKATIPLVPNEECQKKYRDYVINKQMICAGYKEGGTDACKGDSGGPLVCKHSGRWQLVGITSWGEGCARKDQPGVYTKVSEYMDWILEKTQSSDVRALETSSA

B1: M29-D09 (antibody, V domains shown)
VH: EVQLLESGGGLVQPGGSLRLSCAASGFTFSWYTMVWVRQAPGKGLEWVSYIYPSGGATFYADSVKGRFTISRDNSKNTLYLQMNSLRAEDTAVYYCAMGSYDYIWGFYSDHWGQGTLVTVSS
VL: QSALTQPPTVSVSPGQTARITCSGNKLGDKYVAWYQQKPGQSPMLVIYQDTKRPSAIPERFSGSNSANTATLSISGTQALDEADYYCQAWDSSIVIFGGGTRLTVL
notes: HC as printed runs into CH1
In the case of B1, in the assay with human plasma kallikrein [1], the Ki came to 0.7 nM.

B2: M76-D01 (antibody, V domains shown)
VH: EVQLLESGGGLVQPGGSLRLSCAASGFTFSFYAMHWVRQAPGKGLEWVSGIVPSGGRTHYADSVKSRFTISRDNSKNTLYLQMNSLRAEDTAVYYCATDSSGSPNPLFDYWGQGTLVTVSS
VL: DIVMTQTPPSLPVNPGEPASISCRSSQSLSDDGNTYLDWYLQRPGQSPQLLIHTLSYRASGVPDRFSGSGSGTDFTLKISRVEAEDVGVYYCMQGTHWPPTFGQGTKVEIK
In the case of B2, the Ki with human plasma kallikrein [2] was less than 100 nM. Also, in the assay with human plasma kallikrein [3], the “ELISA (T/B)” value was 11.2 T/B ratio.

B3: M137-E12 (antibody, V domains shown)
VH: EVQLLESGGGLVQPGGSLRLSCAASGFTFSDYRMQWVRQAPGKGLEWVSVIVPSGGNTMYADSVKGRFTISRDNSKNTLYLQMNSLRAEDTAVYYCARGGPGSSIAARPAPTGYYGMDVWGQGTTVTVSS
VL: QSVLIQPPSVSGIPGQRVTISCSGNNSNFGSNTVTWYQQLPGTAPKLLIYSDSRRPSGVPDRFSGSRSDTSASLAISGLQSEDEAEYHCAAWDDSLNGVFGGGTKLTVL
For the molecule B3, the Ki in the assay with human plasma kallikrein [2] amounted to 79 nM. Further, the “ELISA (T/B)” value in the assay with human plasma kallikrein [3] is 4.5 T/B ratio.

B4: M6-D09 (antibody, V domains shown)
VH: EVQLLESGGGLVQPGGSLRLSCAASGFTFSFYYMVWVRQAPGKGLEWVSVIYPSGGITVYADSVKGRFTISRDNSKNTLYLQMNSLRAEDTAVYYCARDKWAVMPPYYYYAMDVWGQGTTVTVSS
VL: DIQMTQSPSSLSASVSDRVTITCRASQSIRNYLNWYQQKPSKAPNLLIYAASTLQSGVPARFSGSGSGTDFTLTISSLQPEDFATYYCQQLSGYPHTFGQGTKLEIK
notes: HC as printed runs into CH1
On to B4, for which the Ki with human plasma kallikrein [1] turned out to be 5.9 nM; in the assay with mouse plasma kallikrein it was 3.9 nM.

B5: M29-E09 (antibody, V domains shown)
VH: EVQLLESGGGLVQPGGSLRLSCAASGFTFSWYEMGWVRQAPGKGLEWVSSIYSSGGGTMYADSVKGRFTISRDNSKNTLYLQMNSLRAEDTAVYYCARNPQYSGYDRSLSDGAFDIWGQGTMVTVSS
VL: QYELTQPPSVSVSPSQTATITCSGDNLGNKYNSWYQQKPGQSPLLVIYQDTKRPSAIPERFSGSNSGNTAILTISGTQAMDEADYYCQAWDGNVVFGGGTKLTVL
Regarding B5, the Ki with human plasma kallikrein [2] is 11 nM. Moreover, in the assay with human plasma kallikrein [3], the “ELISA (T/B)” value amounted to 28.8 T/B ratio.

B6: M207-A04 (Fab, V domains shown)
VH: EVQLLESGGGLVQPGGSLRLSCAASGFTFSHYLMTWVRQAPGKGLEWVSYISPSGGHTIYADSVKGRFTISRDNSKNTLYLQMNSLRAEDTAVYYCARVARGIAARSRTSYFDYWGQGTLVTVSS
VL: DIQMTQSPGTLSLSPGERATLSCRTSQFVNSNYLAWYQQTPGQAPRLLIYGASSRATGIPDRFSGTGYGTDFTLTISRLEPEDYGTYYCQQSSRTPWTFGQGTRVEIK
Regarding B6, the % inhibition (commonly the share of the control response that was lost under treatment) at 10 nM with human plasma kallikrein [4] stood at 90.9%.

B7: M209-H03 (Fab, V domains shown)
VH: B6 VH with G42S, R101Q, S110T, Y111Q
VL: B6 VL
Regarding B7, the “% inhibition at 10 nM” value in the assay with human plasma kallikrein [4] was determined as 82.6%.

B8: M209-H07 (Fab, V domains shown)
VH: B6 VH with S107Q, F112Y
VL: B6 VL with S53D, S54D
B8: in the assay with human plasma kallikrein [4], the “% inhibition at 10 nM” value was found to be 76.1%.

B9: M209-D12 (Fab, V domains shown)
VH: B6 VH with G42S, R98T, Y114Q
VL: B6 VL
B9: the “% inhibition at 10 nM” value with human plasma kallikrein [4] was found to be 85.4%.

B10: M209-D02 (Fab, V domains shown)
VH: B6 VH with A104T, Y114D
VL: B6 VL with G42S
In the case of B10, in the assay with human plasma kallikrein [4], the “% inhibition at 10 nM” value is 74.7%.

B11: M209-B11 (Fab, V domains shown)
VH: B6 VH with F112I, Y114Q
VL: B6 VL
Take B11: in the assay with human plasma kallikrein [4], the “% inhibition at 10 nM” value was 87.3%.
